Source: US20100256056A1
Read-outs that look alike come from different tables or passages of the source.

How the values were obtained:
[1] = target: human GLP-1 (hGLP-1) receptor (human) (UniProt P43220)
[2] = target: human GLP-1 (hGLP-1) receptor (human) (UniProt P43220); remark: listed apart in the source

Sequence of human GLP-1 (hGLP-1) receptor (human) (P43220 24-463): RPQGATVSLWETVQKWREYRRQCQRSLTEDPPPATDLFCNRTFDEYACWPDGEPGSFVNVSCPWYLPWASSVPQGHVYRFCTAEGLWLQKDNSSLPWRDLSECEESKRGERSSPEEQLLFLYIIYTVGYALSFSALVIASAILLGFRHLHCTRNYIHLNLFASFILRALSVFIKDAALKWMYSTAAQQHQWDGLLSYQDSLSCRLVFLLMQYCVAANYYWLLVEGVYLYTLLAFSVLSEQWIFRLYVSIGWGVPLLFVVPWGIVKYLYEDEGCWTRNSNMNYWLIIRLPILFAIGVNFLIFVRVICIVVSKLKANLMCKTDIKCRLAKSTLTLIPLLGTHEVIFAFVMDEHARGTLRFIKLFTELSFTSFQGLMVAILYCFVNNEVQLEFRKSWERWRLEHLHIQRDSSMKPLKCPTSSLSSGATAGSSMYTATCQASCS

[Aib^2,29, Nle^14, Arg^30]Exendin-4(1-30)-NH2 (peptide)
hGLP-1 cAMP* [1]: 95

[Aib^2, Nle^14, β-Ala^29, Arg^30]Exendin-4(1-30)-NH2 (peptide)
hGLP-1 cAMP* [2]: 90

[Aib^2, Nle^14]Exendin-4(1-39)-NH2 (peptide)
hGLP-1 cAMP* [2]: 62
